Our source for the binding signal values is publication PMC6555819, “Comprehensive study of nuclear receptor DNA binding provides a revised framework for understanding receptor specificity”.

B1: NRC3_wobSeed109_DR4_C6T_o1 (dsDNA)
DNA 1: GCCGTTCAAGGTCATAGGAGGTCAGTGAAGACAGATGCGATTGACAGCGTAGAATGAAGG
DNA 2: CCTTCATTCTACGCTGTCAATCGCATCTGTCTTCACTGACCTCCTATGACCTTGAACGGC
B2: NRC3_wobSeed73_DR3_A25C_o1 (dsDNA)
DNA 1: GCCAAACTAGGTCACAGAGGTCAACGTCCGTGCGTAGCGATTGACAGCGTAGAATGAAGG
DNA 2: CCTTCATTCTACGCTGTCAATCGCTACGCACGGACGTTGACCTCTGTGACCTAGTTTGGC
B3: NRC3_wobSeed117_DR4_A29T_o1 (dsDNA)
DNA 1: GCCGTCAAAGTTCAACTAAGGTAACGTATAGCACGCGCGATTGACAGCGTAGAATGAAGG
DNA 2: CCTTCATTCTACGCTGTCAATCGCGCGTGCTATACGTTACCTTAGTTGAACTTTGACGGC
B4: NRC3_wobSeed117_DR4_G21T_o1 (dsDNA)
DNA 1: GCCGTCAAAGTTCAACTAAGTTAACGTAAAGCACGCGCGATTGACAGCGTAGAATGAAGG
DNA 2: CCTTCATTCTACGCTGTCAATCGCGCGTGCTTTACGTTAACTTAGTTGAACTTTGACGGC
B5: NRC3_wobSeed13_DR0_C7T_o1 (dsDNA)
DNA 1: GCCGTCTAAGGTCAAGGTCAGTGAAAGAGACTCGAAGCGATTGACAGCGTAGAATGAAGG
DNA 2: CCTTCATTCTACGCTGTCAATCGCTTCGAGTCTCTTTCACTGACCTTGACCTTAGACGGC
B6: NRC3_wobSeed133_DR5_T16C_o1 (dsDNA)
DNA 1: GCCGTCCAAGGTCAACGCTAGGTCAGTGAAAGCATTGCGATTGACAGCGTAGAATGAAGG
DNA 2: CCTTCATTCTACGCTGTCAATCGCAATGCTTTCACTGACCTAGCGTTGACCTTGGACGGC
B7: NRC3_wobSeed69_DR2_T16G_o1 (dsDNA)
DNA 1: GCAGTCAAAGTTCACGAGGTAACGTAAGATTCAGCTGCGATTGACAGCGTAGAATGAAGG
DNA 2: CCTTCATTCTACGCTGTCAATCGCAGCTGAATCTTACGTTACCTCGTGAACTTTGACTGC
B8: NRC3_wobSeed49_DR2_A6G_o1 (dsDNA)
DNA 1: GCCAAGCTAGGTCAAGAGGTCAAAGTCCGCTTCCCGGCGATTGACAGCGTAGAATGAAGG
DNA 2: CCTTCATTCTACGCTGTCAATCGCCGGGAAGCGGACTTTGACCTCTTGACCTAGCTTGGC
B9: NRC3_wobSeed134_DR5_T8A_o1 (dsDNA)
DNA 1: GCGCTGCAAGGTCAACTGATGGTCAGCTAAAGCTCGGCGATTGACAGCGTAGAATGAAGG
DNA 2: CCTTCATTCTACGCTGTCAATCGCCGAGCTTTAGCTGACCATCAGTTGACCTTGCAGCGC
B10: NRC3_wobSeed85_DR3_C6G_o1 (dsDNA)
DNA 1: GCCGTGCAAGGTCAGAGAGGTCAGTGAATGCCGAGTGCGATTGACAGCGTAGAATGAAGG
DNA 2: CCTTCATTCTACGCTGTCAATCGCACTCGGCATTCACTGACCTCTCTGACCTTGCACGGC
B11: NRC3_wobSeed61_DR2_C7T_o1 (dsDNA)
DNA 1: GCCGTCTAAGGTCAGCAGGTCAGTGAAAGCGACGTGGCGATTGACAGCGTAGAATGAAGG
DNA 2: CCTTCATTCTACGCTGTCAATCGCCACGTCGCTTTCACTGACCTGCTGACCTTAGACGGC
B12: NRC3_wobSeed61_DR2_G15A_o1 (dsDNA)
DNA 1: GCCGTCCAAGGTCAACAGGTCAGTGAAAGCGACGTGGCGATTGACAGCGTAGAATGAAGG
DNA 2: CCTTCATTCTACGCTGTCAATCGCCACGTCGCTTTCACTGACCTGTTGACCTTGGACGGC
B13: NRC3_wobSeed61_DR2_G23C_o1 (dsDNA)
DNA 1: GCCGTCCAAGGTCAGCAGGTCACTGAAAGCGACGTGGCGATTGACAGCGTAGAATGAAGG
DNA 2: CCTTCATTCTACGCTGTCAATCGCCACGTCGCTTTCAGTGACCTGCTGACCTTGGACGGC

The target in this series is RARb:RXRa (Homo sapiens, UniProt P10826;P19793 full;full). In words: no ligand; PBM; 270 nM : 90 nM RXRa; PBS pH 7.4, 2% milk, 0.02% Triton X-100, 1 mM DTT, BSA, 0.4 mg/ml salmon testes DNA. The settings on record: tags: His kept;His cleaved; copies: 1;1; label: surface-attached array probe. In short, it runs like this: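 Ligand-free nuclear receptor dimers were applied to custom Agilent 4×180K protein-binding microarrays whose double-stranded probes carried direct-repeat seeds, single-nucleotide variants, half-site ablations and random human genomic background sequences in 34-nt variable regions. Incubation lasted 1 h. Binding z-scores were computed against the random background probes from regression-normalized fluorescence.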
RARb:RXRa, sequence (P10826 whole entry, chain 1 of 2): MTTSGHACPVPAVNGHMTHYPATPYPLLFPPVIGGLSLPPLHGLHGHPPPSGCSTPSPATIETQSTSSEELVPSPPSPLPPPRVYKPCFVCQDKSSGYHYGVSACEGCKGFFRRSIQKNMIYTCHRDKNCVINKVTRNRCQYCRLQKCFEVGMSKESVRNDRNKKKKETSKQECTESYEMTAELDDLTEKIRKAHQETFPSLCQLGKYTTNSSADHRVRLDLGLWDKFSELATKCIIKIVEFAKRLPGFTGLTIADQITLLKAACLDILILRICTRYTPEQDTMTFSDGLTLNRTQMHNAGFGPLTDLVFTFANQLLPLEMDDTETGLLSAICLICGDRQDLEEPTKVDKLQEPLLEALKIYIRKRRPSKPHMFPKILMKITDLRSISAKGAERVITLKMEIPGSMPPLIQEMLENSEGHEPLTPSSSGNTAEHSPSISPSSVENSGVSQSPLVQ
RARb:RXRa, sequence (P19793 whole entry, chain 2 of 2): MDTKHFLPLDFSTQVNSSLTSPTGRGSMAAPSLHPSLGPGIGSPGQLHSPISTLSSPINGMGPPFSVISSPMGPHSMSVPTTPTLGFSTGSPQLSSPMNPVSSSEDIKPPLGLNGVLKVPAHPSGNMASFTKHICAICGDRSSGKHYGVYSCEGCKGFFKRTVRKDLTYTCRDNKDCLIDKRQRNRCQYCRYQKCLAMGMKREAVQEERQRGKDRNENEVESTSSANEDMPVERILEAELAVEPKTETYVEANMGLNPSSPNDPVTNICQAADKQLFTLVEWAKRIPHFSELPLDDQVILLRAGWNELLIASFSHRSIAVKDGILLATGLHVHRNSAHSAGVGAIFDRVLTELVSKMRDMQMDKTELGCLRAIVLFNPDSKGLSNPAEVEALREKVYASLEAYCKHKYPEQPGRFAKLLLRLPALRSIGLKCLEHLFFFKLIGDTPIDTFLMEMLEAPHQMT
Turning to B1, the binding signal was 5.82 PBM z-score against 500 random probes.

Regarding B2, the binding signal is 5.59 PBM z-score against 500 random probes.

Consider B3, for which the binding signal was 5.55 PBM z-score against 500 random probes.

Turning to B4, the binding signal is 5.53 PBM z-score against 500 random probes.

With B5, the binding signal was 6 PBM z-score against 500 random probes.

As for B6, the binding signal was 5.63 PBM z-score against 500 random probes.

B7: the binding signal is 5.54 PBM z-score against 500 random probes.

Turning to B8, the binding signal is 5.77 PBM z-score against 500 random probes.

With B9, the binding signal was 5.55 PBM z-score against 500 random probes.

On to B10, for which the binding signal is 5.58 PBM z-score against 500 random probes.

B11: the binding signal is 5.58 PBM z-score against 500 random probes.

As for B12, the binding signal is 5.56 PBM z-score against 500 random probes.

With B13, the binding signal was 5.58 PBM z-score against 500 random probes.
